± gives the uncertainty stated by the source.
Experiment: protein stability index of a GFP-peptide fusion (yeast GPS) (PSI 1-4); higher = more stable; sorted into four equal gates, so the index is relative within each strain
In short: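 The protein stability index of a peptide was calculated by multiplying its read frequency in each gate by that gate's number and adding the products. The peptides were tiled 17-residue stretches of yeast proteins, fused downstream of GFP on a Cherry-expressing plasmid and carried in yeast as a pooled library. Mid-log cultures in leucine-free medium were sorted into four equal gates by GFP/Cherry ratio, and each gate's plasmids were PCR-amplified and Illumina-sequenced.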

Sequence	protein stability index (doa10∆)	protein stability index (pdr5∆)	protein stability index (san1∆)	protein stability index (ubr1∆)
LLVIGGNQRKILQYSRT [YJR042W/NUP85]	1.86 ± 0.091	2.27 ± 0.096	1.46 ± 0.14	1.4 ± 0.072
LLVKLSKRLPLRFPEHT [BRR2]	2.3 ± 0.063	2.75 ± 0.07	2.25 ± 0.17	2.42 ± 0.062
LMETLRTLRRKGDINPE [RPB2]	3.08 ± 0.1	3.37 ± 0.079	2.85 ± 0.088	3.16 ± 0.069
LMRQALAIKDSKKRFAA [RPO21]	1.83 ± 0.062	2.12 ± 0.055	1.98 ± 0.072	1.53 ± 0.049
LMTHITTDDEEEPIKKL [RET1]	3.42 ± 0.27	3.41 ± 0.28		3.49 ± 0.17
LNEIKEHKIVVLGNSRG [RPN14]	3.57 ± 0.19		3.18 ± 0.15	
LNEYKRETLVKTWEKVT [SMC2]	1.67 ± 0.046	1.84 ± 0.046	1.77 ± 0.083	2.19 ± 0.039
LNFKDDKKYKGLTTVWL [REC8]	2.71 ± 0.064	2.77 ± 0.14	2.64 ± 0.13	2.69 ± 0.066
LNGILADEMGLGKTIQT [SNF2]	2.91 ± 0.11	2.67 ± 0.1	3.29 ± 0.066	2.56 ± 0.095
LNHRNKNQHRAASWYGS [RMP1]	2.86 ± 0.092	3.31 ± 0.07	3.17 ± 0.056	3.06 ± 0.044
LNLDSLLVDQKQLNSLR [SMD1]	2.51 ± 0.051	2.79 ± 0.059	2.98 ± 0.067	2.51 ± 0.062
LNNLPYKNEDVTALLEQ [YCS4]	2.9 ± 0.058	3.09 ± 0.05	3.05 ± 0.047	2.99 ± 0.056
LNSNIRAGVTIPSIPNP [SNF5]	2.57 ± 0.075	2.72 ± 0.062	2.5 ± 0.062	2.72 ± 0.049
LNSNNSIIGNKNNNYTW [REC8]	2.86 ± 0.14	2.76 ± 0.1	2.87 ± 0.07	2.41 ± 0.072
LNTFHFAGVASKKVTSG [RPO21]	2.67 ± 0.093	3.13 ± 0.078	2.9 ± 0.065	2.9 ± 0.077
LNVGNVLPLGSVPEGTI [RPL2A]	3.2 ± 0.077	3.15 ± 0.082	3.26 ± 0.1	3.28 ± 0.061
LNVVMKNLERLRGEYND [SMC4]	3.26 ± 0.092	3.49 ± 0.11	3.37 ± 0.068	3.66 ± 0.13
LPAPPVCIRPSVMMQDS [RPO31]	1.61 ± 0.081	2.08 ± 0.1	1.93 ± 0.11	2.04 ± 0.095
LPIESQFVSKLVDNLNA [BRR2]	2.32 ± 0.052	2.34 ± 0.049	2.5 ± 0.072	2.4 ± 0.059
LPKIIQLQGPQWMNEMV [SOH1]	3.15 ± 0.088	3.29 ± 0.064	3.14 ± 0.066	3.06 ± 0.07

Sequence	protein stability index (doa10∆)	protein stability index (pdr5∆)	protein stability index (san1∆)	protein stability index (ubr1∆)
LPKLNLPKYQTIQYDPP [SNF5]	2.53 ± 0.22	2.6 ± 0.11	2.31 ± 0.16	2.11 ± 0.084
LPQCIIPSSYIKRTDEG [ARP7]	2.77 ± 0.1	2.59 ± 0.068	2.13 ± 0.099	2.49 ± 0.065
LPRYQELTKEEAMYKLQ [SMC3]	3.02 ± 0.12	3.18 ± 0.087	3.43 ± 0.092	3.04 ± 0.073
LPSAVDGENDKKEATKP [YLR335W/NUP2]	3.36 ± 0.082	3.29 ± 0.067	3.05 ± 0.056	3.37 ± 0.059
LPSEDSRAQILQIHSRK [RPT5]	2.21 ± 0.072	2.39 ± 0.049	2.55 ± 0.064	2.89 ± 0.04
LPSPESLKTKLNSNIRA [SNF5]	1.52 ± 0.048	1.71 ± 0.043	2.15 ± 0.061	2.1 ± 0.035
LPSWSLGKWYSKEDYET [ARP7]	1.62 ± 0.17	1.12 ± 0.14		1.09 ± 0.11
LPTPTPTEMEPDLDTEC [SWI1]	2.92 ± 0.05	3.09 ± 0.05	2.77 ± 0.048	2.94 ± 0.032
LPTRYTLDVEAFKSVVS [RPL27A]	1.33 ± 0.031	1.55 ± 0.039	1.62 ± 0.066	1.34 ± 0.031
LQAFGESESTTNVYSKD [RPB3]	2.08 ± 0.081	2.1 ± 0.06	1.68 ± 0.076	1.72 ± 0.041
LQAQLDYLNAELGEFFV [FAS2]	3.06 ± 0.18		2.94 ± 0.17	3.18 ± 0.16
LQDLISVYGLDDISRQV [ROX3]	2.69 ± 0.077	2.88 ± 0.086	2.84 ± 0.12	3.21 ± 0.051
LQDVIALSIADDASSAE [RPC53]	2.47 ± 0.11	1.57 ± 0.079	2.16 ± 0.17	2.81 ± 0.077
LQEKNSGNLPLNELSAK [RPN13]	3.19 ± 0.072	3.2 ± 0.065	3.08 ± 0.038	3.17 ± 0.063
LQGDLTFTKKCLENARS [SIR4]	3.23 ± 0.064	3.11 ± 0.059	3.05 ± 0.047	2.96 ± 0.041
LQHELMISIIKLVTNVV [YML103C/NUP188]	1.54 ± 0.071	1.8 ± 0.048	1.56 ± 0.18	1.57 ± 0.038
LQKALTVKTNDELMVIY [RPN8]	2.33 ± 0.11	1.89 ± 0.067	1.84 ± 0.13	2.65 ± 0.061
LQLNEAEEFVAGVSHGT [SMX3]	3.36 ± 0.25	2.96 ± 0.23	3.01 ± 0.28	3.41 ± 0.11
LQLTTNTEQGDSDELGG [SNM1]	3.25 ± 0.16	3.55 ± 0.29	3.29 ± 0.11	3.09 ± 0.24

— the supplement of paper PMC9732359
